Test results published in PMC2904422.

Target: myelin and lymphocyte protein 2 (MAL2) (rat (endogenous in WIF-B)) (UniProt Q7TPB7)
Assay: co-IP

Substance: polymeric immunoglobulin A-receptor (pIgA-R), mature form (from UniProt P15083 19-769)
- percent of total pIgA-R coimmunoprecipitated (% of total pIgA-R): 1
